Test system: DU145 cells
Test: Cell proliferation assay (WST-1)
Format: cell-based, human
Details: protein added exogenously 48 hours after siRNA transfection
Description: In contrast, CRKL was not detected in control cell media as shown by immunoprecipitation either with anti-CRKL or with several control antibodies. […] Next, studies were undertaken to determine whether the CRKL secretion had any detectable effect(s) on cell proliferation and migration. […] As an additional control, it was shown that the decrease in cell proliferation could be rescued by exogenous CRKL (FIG. 8D) and only background levels of apoptosis (less than 1%) were detected in the CRKL siRNA knockdown cells or in serum-free medium cultured cells.
CRKL (mRNA accession # NM_005207), β1 integrin (mRNA accession # NM_002211), and control siRNAs were purchased (Santa Cruz, Ambion and Dharmacon). siRNA oligonucleotides sequences and corresponding manufacturers are summarized in (Table 3). Oligofectamine (Invitrogen) or DharmaFect (Dharmacon) were used to transfect siRNAs into DU145 cells (1-2×10^5 cells per well). The transfected cells were incubated for 48-72 hours prior to processing. […] Transfected cells were harvested and lysed in the presence of protease inhibitors. The tumor-homing phage binding activity was also examined in the CRKL knockdown cells. For rescue experiments, up to 1.5 μg of recombinant CRKL was exogenously added to CRKL siRNA transfected cells. […]

B1: exogenous CRKL: recombinant His-tag CRKL protein added exogenously (protein)
chain: MSSARFDSSDRSAWYMGPVSRQEAQTRLQGQRHGMFLVRDSSTCPGDYVLSVSENSRVSHYIINSLPNRRFKIGDQEFDHLPALLEFYKIHYLDTTTLIEPAPRYPSPPMGSVSAPNLPTAEDNLEYVRTLYDFPGNDAEDLPFKKGEILVIIEKPEEQWWSARNKDGRVGMIPVPYVEKLVRSSPHGKHGNRNSNSYGIPEPAHAYAQPQTTTPLPAVSGSPGAAITPLPSTQNGPVFAKAIQKRVPCAYDKTALALEVGDIVKVTRMNINGQWEGEVNGRKGLFPFTHVKIFDPQNPDENE
rescue of decrease in cell proliferation in CRKL siRNA knockdown cells: rescued
